Changes are numbered by the printed parent chain. Numbers in names are those of the source.
T1: Complement C4 (human)
T1 chain 1: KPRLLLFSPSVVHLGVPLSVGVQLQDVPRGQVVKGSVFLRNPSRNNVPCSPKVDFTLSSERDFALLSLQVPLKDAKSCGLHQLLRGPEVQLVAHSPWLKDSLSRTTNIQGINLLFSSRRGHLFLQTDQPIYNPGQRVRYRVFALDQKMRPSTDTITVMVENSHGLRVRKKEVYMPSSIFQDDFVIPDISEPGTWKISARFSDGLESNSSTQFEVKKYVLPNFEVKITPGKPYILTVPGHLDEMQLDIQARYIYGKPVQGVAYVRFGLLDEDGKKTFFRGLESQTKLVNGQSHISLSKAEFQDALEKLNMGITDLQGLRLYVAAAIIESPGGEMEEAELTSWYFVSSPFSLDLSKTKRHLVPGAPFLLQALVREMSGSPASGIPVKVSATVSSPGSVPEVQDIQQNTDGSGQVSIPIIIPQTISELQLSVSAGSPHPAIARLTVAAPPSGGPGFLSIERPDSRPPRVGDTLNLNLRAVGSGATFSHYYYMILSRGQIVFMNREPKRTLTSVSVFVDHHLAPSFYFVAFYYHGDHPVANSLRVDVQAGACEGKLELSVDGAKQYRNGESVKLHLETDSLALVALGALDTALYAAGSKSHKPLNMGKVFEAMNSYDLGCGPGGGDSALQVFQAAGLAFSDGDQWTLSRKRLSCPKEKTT
T1 chain 2: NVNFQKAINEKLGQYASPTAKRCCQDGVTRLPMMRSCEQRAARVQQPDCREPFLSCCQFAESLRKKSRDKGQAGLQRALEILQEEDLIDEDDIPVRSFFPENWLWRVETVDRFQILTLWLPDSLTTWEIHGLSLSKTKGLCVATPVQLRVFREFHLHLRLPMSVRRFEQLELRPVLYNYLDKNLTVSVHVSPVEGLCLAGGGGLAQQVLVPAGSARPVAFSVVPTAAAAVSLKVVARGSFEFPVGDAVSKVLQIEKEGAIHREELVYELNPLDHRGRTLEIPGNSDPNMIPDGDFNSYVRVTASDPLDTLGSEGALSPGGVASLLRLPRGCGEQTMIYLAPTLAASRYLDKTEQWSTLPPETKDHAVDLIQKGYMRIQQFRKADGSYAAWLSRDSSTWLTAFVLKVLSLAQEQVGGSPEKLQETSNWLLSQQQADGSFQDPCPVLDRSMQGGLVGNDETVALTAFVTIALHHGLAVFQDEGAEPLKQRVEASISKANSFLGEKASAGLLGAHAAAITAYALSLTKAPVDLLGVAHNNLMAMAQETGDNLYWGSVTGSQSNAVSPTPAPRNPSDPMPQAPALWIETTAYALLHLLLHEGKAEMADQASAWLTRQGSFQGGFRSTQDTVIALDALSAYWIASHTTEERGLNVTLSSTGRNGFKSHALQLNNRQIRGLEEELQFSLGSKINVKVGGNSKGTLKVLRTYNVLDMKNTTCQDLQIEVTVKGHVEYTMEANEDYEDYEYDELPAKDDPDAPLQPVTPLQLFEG
T1 chain 3: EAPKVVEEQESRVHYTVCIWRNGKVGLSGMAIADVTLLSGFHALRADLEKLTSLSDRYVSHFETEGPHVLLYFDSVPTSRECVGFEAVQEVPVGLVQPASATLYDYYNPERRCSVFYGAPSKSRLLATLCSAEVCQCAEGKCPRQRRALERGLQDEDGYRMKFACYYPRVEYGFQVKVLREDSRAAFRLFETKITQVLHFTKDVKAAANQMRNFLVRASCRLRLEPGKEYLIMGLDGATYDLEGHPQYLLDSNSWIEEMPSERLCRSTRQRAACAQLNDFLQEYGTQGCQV

T2: cynomolgus monkey complement C2 (in plasma of treated monkeys), G8F3W0
T2 chain: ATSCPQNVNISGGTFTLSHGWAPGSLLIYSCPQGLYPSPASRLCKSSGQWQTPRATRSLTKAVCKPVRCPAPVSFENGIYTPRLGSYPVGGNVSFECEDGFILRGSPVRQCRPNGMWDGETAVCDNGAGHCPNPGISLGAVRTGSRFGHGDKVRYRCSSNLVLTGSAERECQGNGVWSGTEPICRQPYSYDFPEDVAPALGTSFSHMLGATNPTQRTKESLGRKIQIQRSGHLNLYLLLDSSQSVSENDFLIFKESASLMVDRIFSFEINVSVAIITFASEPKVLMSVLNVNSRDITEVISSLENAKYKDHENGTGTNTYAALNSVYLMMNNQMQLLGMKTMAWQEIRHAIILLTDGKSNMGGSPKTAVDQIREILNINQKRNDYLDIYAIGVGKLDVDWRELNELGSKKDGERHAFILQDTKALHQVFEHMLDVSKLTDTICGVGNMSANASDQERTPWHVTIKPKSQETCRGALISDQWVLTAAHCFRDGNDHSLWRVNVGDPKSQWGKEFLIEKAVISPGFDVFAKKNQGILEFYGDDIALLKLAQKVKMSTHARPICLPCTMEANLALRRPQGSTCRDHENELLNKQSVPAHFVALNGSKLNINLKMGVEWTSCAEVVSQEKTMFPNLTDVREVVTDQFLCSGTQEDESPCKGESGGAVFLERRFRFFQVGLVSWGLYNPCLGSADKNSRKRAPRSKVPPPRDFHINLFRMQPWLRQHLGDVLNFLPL

B1: modified MT-SP1 CB252 (Y146E/K224N) protease domain (protein)
chain: VVGGTDADEGEWPWQVSLHALGQGHICGASLISPNWLVSAAHCYIDDRGFRYSDPTQWTAFLGLHDQSQRSAPGVQERRLKRIISHPFFNDFTFDYDIALLELEKPAEYSSMVRPICLPDASHVFPAGKAIWVTGWGHTQEGGTGALILQKGEIRVINQTTCENLLPQQITPRMMCVGFLSGGVDSCQGDSGGPLSSVEADGRIFQAGVVSWGDGCAQRNNPGVYTRLPLFRDWIKENTGV
B2: modified MT-SP1 CB377 (Y146E/Q175D/K224N) protease domain (protein)
chain: B1 chain with Q169D

Experiments:
[1] = biological target: Complement component C9 (human)
Sequence of Complement component C9 (human) (chain, as listed by the source): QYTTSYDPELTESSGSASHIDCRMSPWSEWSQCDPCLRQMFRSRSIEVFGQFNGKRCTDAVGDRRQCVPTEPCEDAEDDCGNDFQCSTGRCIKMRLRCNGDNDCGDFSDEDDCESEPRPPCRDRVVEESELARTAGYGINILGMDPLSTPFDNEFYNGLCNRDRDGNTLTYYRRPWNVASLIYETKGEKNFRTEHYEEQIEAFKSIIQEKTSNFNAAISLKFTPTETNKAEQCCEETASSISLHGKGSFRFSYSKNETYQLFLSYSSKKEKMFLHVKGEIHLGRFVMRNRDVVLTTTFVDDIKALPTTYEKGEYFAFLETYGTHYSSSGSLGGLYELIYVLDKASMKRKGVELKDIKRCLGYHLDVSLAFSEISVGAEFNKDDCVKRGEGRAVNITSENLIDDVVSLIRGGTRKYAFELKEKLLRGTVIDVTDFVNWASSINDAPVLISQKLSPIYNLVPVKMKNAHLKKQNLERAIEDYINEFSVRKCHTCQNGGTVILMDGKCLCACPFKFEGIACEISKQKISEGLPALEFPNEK

[2] = biological target: Complement component C7 (human)
Sequence of Complement component C7 (human) (chain, as listed by the source): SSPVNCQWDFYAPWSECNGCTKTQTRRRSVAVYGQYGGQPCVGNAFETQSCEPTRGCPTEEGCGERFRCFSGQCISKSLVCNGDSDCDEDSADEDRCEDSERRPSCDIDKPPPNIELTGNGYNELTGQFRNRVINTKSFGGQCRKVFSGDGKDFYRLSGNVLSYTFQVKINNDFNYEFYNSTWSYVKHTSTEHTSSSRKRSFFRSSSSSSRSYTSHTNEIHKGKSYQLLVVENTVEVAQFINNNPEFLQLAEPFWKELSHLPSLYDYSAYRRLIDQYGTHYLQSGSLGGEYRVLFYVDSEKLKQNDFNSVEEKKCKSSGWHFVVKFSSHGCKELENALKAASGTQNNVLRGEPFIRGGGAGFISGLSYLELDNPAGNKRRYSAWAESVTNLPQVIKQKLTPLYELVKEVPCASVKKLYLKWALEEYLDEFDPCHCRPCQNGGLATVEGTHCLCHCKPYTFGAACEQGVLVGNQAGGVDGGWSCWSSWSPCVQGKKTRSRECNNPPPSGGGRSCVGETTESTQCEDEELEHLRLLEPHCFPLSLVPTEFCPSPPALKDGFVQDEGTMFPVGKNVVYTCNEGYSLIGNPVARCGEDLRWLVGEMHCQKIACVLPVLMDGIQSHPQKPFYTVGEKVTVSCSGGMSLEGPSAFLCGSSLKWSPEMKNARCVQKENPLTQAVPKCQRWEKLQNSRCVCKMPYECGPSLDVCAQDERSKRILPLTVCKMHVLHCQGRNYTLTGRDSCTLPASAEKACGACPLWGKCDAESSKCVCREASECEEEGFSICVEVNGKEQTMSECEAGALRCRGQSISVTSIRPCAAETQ

[3] = biological target: Complement C5 (human)
Sequence of Complement C5 (human) (chain, as listed by the source, chain 1 of 2): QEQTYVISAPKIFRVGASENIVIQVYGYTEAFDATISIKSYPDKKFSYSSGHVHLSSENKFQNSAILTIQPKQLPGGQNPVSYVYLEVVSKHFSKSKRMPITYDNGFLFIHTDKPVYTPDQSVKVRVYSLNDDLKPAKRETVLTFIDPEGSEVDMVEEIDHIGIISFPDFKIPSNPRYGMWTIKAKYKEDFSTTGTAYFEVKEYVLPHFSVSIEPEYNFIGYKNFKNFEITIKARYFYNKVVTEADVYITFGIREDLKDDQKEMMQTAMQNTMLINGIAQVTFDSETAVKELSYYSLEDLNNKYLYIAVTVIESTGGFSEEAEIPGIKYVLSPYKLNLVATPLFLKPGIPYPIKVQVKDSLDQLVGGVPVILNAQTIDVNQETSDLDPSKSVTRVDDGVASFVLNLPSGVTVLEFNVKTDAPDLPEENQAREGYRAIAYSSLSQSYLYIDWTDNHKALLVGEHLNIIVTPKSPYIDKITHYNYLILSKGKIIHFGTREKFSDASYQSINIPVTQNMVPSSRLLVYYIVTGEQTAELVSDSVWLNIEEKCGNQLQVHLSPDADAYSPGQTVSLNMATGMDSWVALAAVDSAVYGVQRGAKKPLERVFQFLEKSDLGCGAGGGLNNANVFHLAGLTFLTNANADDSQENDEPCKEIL
Sequence of Complement C5 (human) (chain, as listed by the source, chain 2 of 2): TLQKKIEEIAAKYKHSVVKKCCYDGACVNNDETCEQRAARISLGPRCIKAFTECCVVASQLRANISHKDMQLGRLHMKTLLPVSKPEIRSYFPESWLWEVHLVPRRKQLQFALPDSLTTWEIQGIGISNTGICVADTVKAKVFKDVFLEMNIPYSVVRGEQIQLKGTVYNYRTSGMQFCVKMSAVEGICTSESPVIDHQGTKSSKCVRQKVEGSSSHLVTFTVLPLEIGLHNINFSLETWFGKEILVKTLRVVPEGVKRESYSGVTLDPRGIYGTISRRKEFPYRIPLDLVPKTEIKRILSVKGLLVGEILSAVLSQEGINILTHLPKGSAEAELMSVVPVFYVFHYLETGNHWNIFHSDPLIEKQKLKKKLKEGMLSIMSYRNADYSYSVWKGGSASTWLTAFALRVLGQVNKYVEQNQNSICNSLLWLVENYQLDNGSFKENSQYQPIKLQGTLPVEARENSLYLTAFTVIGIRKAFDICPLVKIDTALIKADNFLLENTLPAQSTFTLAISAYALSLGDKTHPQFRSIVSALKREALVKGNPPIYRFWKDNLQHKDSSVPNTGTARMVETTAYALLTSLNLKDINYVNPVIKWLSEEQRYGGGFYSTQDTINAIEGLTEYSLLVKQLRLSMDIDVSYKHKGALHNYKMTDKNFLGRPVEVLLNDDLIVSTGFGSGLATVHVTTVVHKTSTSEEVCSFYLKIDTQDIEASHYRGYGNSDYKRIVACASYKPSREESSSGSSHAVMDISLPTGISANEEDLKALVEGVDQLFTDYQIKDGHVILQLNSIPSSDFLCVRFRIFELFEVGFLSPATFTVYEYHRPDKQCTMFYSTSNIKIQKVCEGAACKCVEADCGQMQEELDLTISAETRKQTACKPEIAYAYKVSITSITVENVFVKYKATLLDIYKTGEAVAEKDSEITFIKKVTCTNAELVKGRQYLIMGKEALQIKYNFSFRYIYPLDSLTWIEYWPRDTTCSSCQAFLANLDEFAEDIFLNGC

[4] = biological target: T1, Complement C4 (human)
[5] = biological target: Complement component C8 (human)
Sequence of Complement component C8 (human) (chain, as listed by the source, chain 1 of 3): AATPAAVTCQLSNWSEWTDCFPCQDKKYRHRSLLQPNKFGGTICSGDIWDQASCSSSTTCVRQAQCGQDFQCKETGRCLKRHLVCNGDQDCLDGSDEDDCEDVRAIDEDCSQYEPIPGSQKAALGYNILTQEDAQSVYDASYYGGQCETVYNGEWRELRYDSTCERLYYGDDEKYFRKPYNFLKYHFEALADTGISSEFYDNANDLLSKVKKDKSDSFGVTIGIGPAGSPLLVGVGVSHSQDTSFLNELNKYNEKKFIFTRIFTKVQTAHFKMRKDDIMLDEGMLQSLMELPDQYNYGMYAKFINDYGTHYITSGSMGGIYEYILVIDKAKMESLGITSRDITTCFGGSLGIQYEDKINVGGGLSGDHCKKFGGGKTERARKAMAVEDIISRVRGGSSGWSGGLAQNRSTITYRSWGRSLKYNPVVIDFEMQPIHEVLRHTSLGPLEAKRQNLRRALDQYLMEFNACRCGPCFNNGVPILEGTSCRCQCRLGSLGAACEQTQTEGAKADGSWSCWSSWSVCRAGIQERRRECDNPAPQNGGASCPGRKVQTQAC
Sequence of Complement component C8 (human) (chain, as listed by the source, chain 2 of 3): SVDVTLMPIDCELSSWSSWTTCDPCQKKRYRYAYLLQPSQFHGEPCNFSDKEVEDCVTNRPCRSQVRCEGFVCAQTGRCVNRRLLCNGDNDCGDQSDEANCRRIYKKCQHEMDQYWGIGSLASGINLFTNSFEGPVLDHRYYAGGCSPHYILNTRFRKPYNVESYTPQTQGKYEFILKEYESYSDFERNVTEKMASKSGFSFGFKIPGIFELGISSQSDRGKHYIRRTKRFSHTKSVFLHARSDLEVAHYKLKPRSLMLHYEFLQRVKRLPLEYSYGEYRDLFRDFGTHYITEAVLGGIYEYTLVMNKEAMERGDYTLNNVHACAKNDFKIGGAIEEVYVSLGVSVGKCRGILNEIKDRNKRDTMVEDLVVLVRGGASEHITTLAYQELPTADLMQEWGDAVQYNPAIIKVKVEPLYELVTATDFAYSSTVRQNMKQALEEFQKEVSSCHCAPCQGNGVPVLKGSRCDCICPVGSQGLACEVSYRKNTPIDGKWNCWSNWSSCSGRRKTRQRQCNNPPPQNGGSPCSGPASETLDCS
Sequence of Complement component C8 (human) (chain, as listed by the source, chain 3 of 3): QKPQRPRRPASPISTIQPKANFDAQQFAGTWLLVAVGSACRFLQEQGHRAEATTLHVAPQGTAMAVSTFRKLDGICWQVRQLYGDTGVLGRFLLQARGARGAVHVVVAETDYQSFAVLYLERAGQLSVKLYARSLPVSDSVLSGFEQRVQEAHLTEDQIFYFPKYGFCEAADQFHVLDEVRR

[6] = biological target: Complement C1q (human)
[7] = biological target: T2, cynomolgus monkey complement C2 (in …)
[8] = biological target: Complement C3 (human)

Protein	hemolysis (OD415) by protease-preincubated purified complement protein added back to the corresponding depleted sera [1]	hemolysis (OD415) by protease-preincubated purified complement protein added back to the corresponding depleted sera [2]	hemolysis (OD415) by protease-preincubated purified complement protein added back to the corresponding depleted sera [3]	hemolysis (OD415) by protease-preincubated purified complement protein added back to the corresponding depleted sera [4]	hemolysis (OD415) by protease-preincubated purified complement protein added back to the corresponding depleted sera [5]	hemolysis (OD415) by protease-preincubated purified complement protein added back to the corresponding depleted sera [6]	C2 Western blot of plasma from monkeys dosed IV with 1 or 3 mg/kg protease [7]	cleavage in 90% human plasma by Western blot [8]	hemolysis (OD415) by protease-preincubated purified complement protein added back to the corresponding depleted sera [8]	other results
B1	showed no decreased hemolysis as compared to normal sera or the no protease control	showed no decreased hemolysis as compared to normal sera or the no protease control	showed no decreased hemolysis as compared to normal sera or the no protease control	showed no decreased hemolysis as compared to normal sera or the no protease control	showed no decreased hemolysis as compared to normal sera or the no protease control	showed no decreased hemolysis as compared to normal sera or the no protease control	increased cleavage of C2 in plasma from CB252 and CB377 treated monkeys after treatment with 3 mg/kg protease but not after treatment with 1 mg/kg protease ... a greater cleavage of C2 occurred in plasma collected form CB252 treated monkeys as compared to CB377 treated monkeys at all time points tes	none of the tested proteases cleaved C3 in human plasma as compared to the no protease control even at the highest concentration of protease (2000 nM)	showed no decreased hemolysis as compared to normal sera or the no protease control	C2 Western blot of plasma from monkeys dosed with 1 mg/kg CB252 IV [7]: Plasma from monkeys treated with 1 mg/kg CB252 had no discernable C2 cleavage; average extent of degradation of C2 (densitometry of C2 Western blots), 5 minutes after 3 mg/kg CB252 IV [7]: 60% degraded at 5 minutes; average extent of degradation of C2 (densitometry of C2 Western blots), 30 minutes after 3 mg/kg CB252 IV [7]: 50% degraded at 30 minutes; average extent of degradation of C2 (densitometry of C2 Western blots), 60 minutes after 3 mg/kg CB252 IV [7]: 40% degraded at 60 minutes; percent C2 cleavage (Western blot densitometry), plasma of animal 2, 5 minutes after 3 mg/kg CB252 IV [7]: 62%; percent C2 cleavage (Western blot densitometry), plasma of animal 2, 30 minutes after 3 mg/kg CB252 IV [7]: 55%; percent C2 cleavage (Western blot densitometry), plasma of animal 2, 60 minutes after 3 mg/kg CB252 IV [7]: 50%; percent C2 cleavage (Western blot densitometry), plasma of animal 4, 5 minutes after 3 mg/kg CB252 IV [7]: 55%; percent C2 cleavage (Western blot densitometry), plasma of animal 4, 30 minutes after 3 mg/kg CB252 IV [7]: 45%; percent C2 cleavage (Western blot densitometry), plasma of animal 4, 60 minutes after 3 mg/kg CB252 IV [7]: 37%; percent C2 cleavage (Western blot densitometry), plasma of animal 5, 5 minutes after 3 mg/kg CB252 IV [7]: 65%; percent C2 cleavage (Western blot densitometry), plasma of animal 5, 30 minutes after 3 mg/kg CB252 IV [7]: 50%; percent C2 cleavage (Western blot densitometry), plasma of animal 5, 60 minutes after 3 mg/kg CB252 IV [7]: 38%
B2	showed no decreased hemolysis as compared to normal sera or the no protease control	showed no decreased hemolysis as compared to normal sera or the no protease control	showed no decreased hemolysis as compared to normal sera or the no protease control	showed no decreased hemolysis as compared to normal sera or the no protease control	showed no decreased hemolysis as compared to normal sera or the no protease control	showed no decreased hemolysis as compared to normal sera or the no protease control	increased cleavage of C2 in plasma from CB252 and CB377 treated monkeys after treatment with 3 mg/kg protease but not after treatment with 1 mg/kg protease	none of the tested proteases cleaved C3 in human plasma as compared to the no protease control even at the highest concentration of protease (2000 nM)	showed no decreased hemolysis as compared to normal sera or the no protease control	
